B1: glmS ribozyme (parent)
chain: AUAAAAGCGCCAGAACUACAGAAAUGUAGUUGACGAGGAGGAGGUUUAUCGAAUUUUCGGCGGAUGCCUCCAAA

What all share (settings): with glucosamine-6-phosphate
The variants in data set [1] derive from B1. The data set can be described thus: kcat; higher = faster cleavage; RNA array. A digest of the protocol:
(§1)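 Tiles bearing barcoded ribozyme variants, transcribed in situ by E. coli RNA polymerase on sequenced MiSeq chips, were imaged over ~14 h at 37 °C using a hybridised Cy3 probe. Glucosamine-6-phosphate was supplied at 40 μM to 10 mM in HEPES/KCl/Mg(OAc)2 buffer. kobs came from one- or two-exponential decay fits to normalised per-tile medians, and weighted Michaelis–Menten fits then provided kcat and KM.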

Variants of B1 are the subject of data set [2]. Kind of data set: self-cleavage kobs at 10000 uM GlcN6P; higher = faster cleavage; RNA array. The method, boiled down: as §1
Variants of B1 are the subject of data set [3]. Kind of data set: self-cleavage kobs at 640 uM GlcN6P; higher = faster cleavage; RNA array. The method, boiled down: as §1
Data set [4] covers variants of B1. Kind of data set: self-cleavage kobs at 2500 uM GlcN6P; higher = faster cleavage; RNA array. The method, boiled down: as §1
Variants of B1 are the subject of data set [5]. The data set can be described thus: KM; higher = weaker cofactor use; RNA array. The method, boiled down: as §1
Data set [6] covers variants of B1. Kind of data set: self-cleavage kobs at 160 uM GlcN6P; higher = faster cleavage; RNA array. A digest of the protocol: as §1
In data set [7] the parent is B1. The data set can be described thus: self-cleavage kobs at 40 uM GlcN6P; higher = faster cleavage; RNA array. The method, boiled down:
as §1

± gives the standard error. For some of these results: Fewer inactive variants are shown than the library holds. Where only a bound is given, the exact number is not on record here.

Consider AUAAAAGCGCCAGAACUACAGAAAUGUAGUUGACGUGGAGGAGGUUUAUCGAAUUUUCGGCGGGUGCCUCCAAA, for which, in data set [1], the kcat – broadly, the maximal rate divided by the concentration of active sites – worked out at 1.98e-05 ± 2e-06 s⁻¹. The “self-cleavage kobs at 10000 uM GlcN6P” value in data set [2] was 1.85e-05 ± 5.8e-06 s⁻¹.

On to AUAAAAGCGCCCGUAUUACAGAAAUGUAGUUGACGAGGAGGAGGUGUAUCGAAUUUUCGGCGGAUGCCUCCAAA, for which, in data set [1], the kcat was 3.1e-05 ± 6.8e-06 s⁻¹.

For the variant AUAAAAGCGCCAGAACUACAGAAAUGUAGUCGACGAGGACGAGGUUUAUCGAAUUUUCGGCGGAUGCCUCCAAA, the kcat in data set [1] came to 0.000274 ± 4.9e-05 s⁻¹. In data set [3], the “self-cleavage kobs at 640 uM GlcN6P” value came to 0.000125 ± 5e-05 s⁻¹. Also, the “self-cleavage kobs at 2500 uM GlcN6P” value in data set [4] was determined as 0.000177 ± 4e-05 s⁻¹. Further, the “self-cleavage kobs at 10000 uM GlcN6P” value in data set [2] is 0.000287 ± 6.9e-05 s⁻¹.

On to AUAAAAGCGCCAGAACUACAGAAAUGUAUUUGACGAGGAGGAGGUUUAUCGAAUUUCCGGCGGAUGCCUCCAAA, for which the kcat in data set [1] came to 6.81e-05 ± 7.7e-06 s⁻¹. Moreover, in data set [5], the KM – broadly, the concentration of substrate that gives half-maximal velocity – came out at 3360 ± 1100 µM. In data set [4], the “self-cleavage kobs at 2500 uM GlcN6P” value was 2.73e-05 ± 7.7e-06 s⁻¹. For the same variant, the “self-cleavage kobs at 10000 uM GlcN6P” value in data set [2] turned out to be 5.13e-05 ± 6.5e-06 s⁻¹.

On to AUAAAAGCGCCAGAACUACAGAAAUGUAGUUGACGAGGAGGAGGUUUAUCGAAUUUUCGACGGAUCCCUCCAAA, for which, in data set [1], the kcat is < 1e-05 s⁻¹. For the same variant, the “self-cleavage kobs at 640 uM GlcN6P” value in data set [3] was < 1e-05 s⁻¹. In data set [4], the “self-cleavage kobs at 2500 uM GlcN6P” value is < 1e-05 s⁻¹. Moreover, the “self-cleavage kobs at 10000 uM GlcN6P” value in data set [2] was < 1e-05 s⁻¹.

AUAAAAGCGCUAGAUCUACAGAAAUGUAGUUGACGAGGAGGAGGUUUAUCGAAUUUUCGGCGGAUGCCUCCAAA: the catalytic constant (kcat) in data set [1] stood at 0.000594 ± 3.8e-05 s⁻¹. In addition, the KM in data set [5] worked out at 1540 ± 230 µM. Also, in data set [6], the “self-cleavage kobs at 160 uM GlcN6P” value was 4.54e-05 ± 1.7e-05 s⁻¹. The “self-cleavage kobs at 640 uM GlcN6P” value in data set [3] is 0.000178 ± 2.4e-05 s⁻¹. In addition, in data set [4], the “self-cleavage kobs at 2500 uM GlcN6P” value worked out at 0.000375 ± 5.4e-05 s⁻¹. The “self-cleavage kobs at 10000 uM GlcN6P” value in data set [2] was 0.000511 ± 4.5e-05 s⁻¹.

In the case of AUAAAAGCGCCAGAUCUACAGAAAUGUAGUUGACGAGGAGGAGGUUUAUCGAAUUUUCGGCGGACGCCUCCAAA, the turnover number (kcat) in data set [1] was 5.03e-05 ± 3.5e-06 s⁻¹. Also, in data set [3], the “self-cleavage kobs at 640 uM GlcN6P” value is 4.42e-05 ± 1.2e-05 s⁻¹. Further, the “self-cleavage kobs at 2500 uM GlcN6P” value in data set [4] came out at 4.8e-05 ± 8.3e-06 s⁻¹. The “self-cleavage kobs at 10000 uM GlcN6P” value in data set [2] came out at 4.61e-05 ± 1.5e-05 s⁻¹.

AUAAAAGCGCCAGAACUACAGAAAUGUAGUUGACGAGGAGGAGGUUUAUUGAAUUUUCGUCGGAUGCCUUCAAA: the turnover number (kcat) in data set [1] was determined as 1.49e-05 ± 6e-06 s⁻¹.

In the case of AUAAAAGCGCCAGAACUACAGAAAUGUAGUCGACGAGGAGGAGGUUGAUCGAAUUUUCGGCGGAUGCCUCCAAA, the kcat in data set [1] is 0.000887 ± 0.00023 s⁻¹. Besides, the KM in data set [5] was 1440 ± 640 µM. In data set [7], the “self-cleavage kobs at 40 uM GlcN6P” value was 3.36e-05 ± 9.1e-06 s⁻¹. Also, the “self-cleavage kobs at 160 uM GlcN6P” value in data set [6] turned out to be 8.85e-05 ± 1.5e-05 s⁻¹. In addition, the “self-cleavage kobs at 640 uM GlcN6P” value in data set [3] stood at 0.000292 ± 4.5e-05 s⁻¹. For the same variant, the “self-cleavage kobs at 2500 uM GlcN6P” value in data set [4] was found to be 0.000426 ± 7e-05 s⁻¹. Besides, in data set [2], the “self-cleavage kobs at 10000 uM GlcN6P” value was found to be 0.00102 ± 0.00013 s⁻¹.

As for AUAAAAGCGCCAGAACUACAGAAAUGUAGUUGACGAGUAGGAGGUUUAUCGAAUUUUCGGCGGAUGCCUACAAA, the kcat in data set [1] amounted to 1.31e-05 ± 3.3e-06 s⁻¹.

As for AUAAAAGCGCCAGAACUACAGAAAUGUAGUUGACGAGGAGUUGGUUUAUCGAAUUUUCGGCGGAUGCCUCCAAA, the kcat in data set [1] is 0.00136 ± 0.00056 s⁻¹. In addition, in data set [7], the “self-cleavage kobs at 40 uM GlcN6P” value was found to be 9.43e-05 ± 1.1e-05 s⁻¹. Besides, the “self-cleavage kobs at 160 uM GlcN6P” value in data set [6] was 0.000106 ± 1.9e-05 s⁻¹. Besides, the “self-cleavage kobs at 640 uM GlcN6P” value in data set [3] was 0.000464 ± 5.5e-05 s⁻¹. Moreover, the “self-cleavage kobs at 2500 uM GlcN6P” value in data set [4] was 0.00119 ± 0.00014 s⁻¹. In addition, in data set [2], the “self-cleavage kobs at 10000 uM GlcN6P” value came to 0.00108 ± 0.00015 s⁻¹.

Source of the values: the supplement of paper PMC7125110.
